Source: paper PMC4861984, “Deciphering a unique biotin scavenging pathway with redundant genes in the probiotic bacterium Lactococcus lactis” (Scientific Reports, 2016)

T1: BirA2_LL (Lactococcus lactis IL1403, UniProt Q9CED9 1-250)
T1 sequence: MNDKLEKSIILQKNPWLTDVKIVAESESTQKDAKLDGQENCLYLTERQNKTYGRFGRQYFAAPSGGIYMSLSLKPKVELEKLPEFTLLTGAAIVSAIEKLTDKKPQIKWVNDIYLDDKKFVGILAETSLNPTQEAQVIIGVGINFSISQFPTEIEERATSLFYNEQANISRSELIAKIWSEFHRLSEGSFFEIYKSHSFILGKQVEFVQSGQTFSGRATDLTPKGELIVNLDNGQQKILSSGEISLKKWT

T2: BirA1_LL (Lactococcus lactis IL1403, UniProt Q9CEQ6 1-323)
T2 sequence: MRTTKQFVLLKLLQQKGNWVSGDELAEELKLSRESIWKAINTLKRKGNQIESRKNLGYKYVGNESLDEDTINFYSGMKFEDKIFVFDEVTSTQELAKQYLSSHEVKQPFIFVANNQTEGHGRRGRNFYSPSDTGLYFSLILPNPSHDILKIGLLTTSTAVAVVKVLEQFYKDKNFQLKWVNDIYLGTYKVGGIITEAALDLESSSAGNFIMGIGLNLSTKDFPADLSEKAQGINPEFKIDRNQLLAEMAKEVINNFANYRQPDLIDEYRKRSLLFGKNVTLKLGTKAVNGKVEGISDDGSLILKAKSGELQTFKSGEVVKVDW

B1: bioY_LL (bioY1 promoter probe) (dsDNA)
DNA 1: CAAATAATAAAATTAACAGTTAACCTAAATTTGATTTTAGGGTTACTGTTTGATATG
DNA 2: CATATCAAACAGTAACCCTAAAATCAAATTTAGGTTAACTGTTAATTTTATTATTTG

Experiments:
BirA_ec = molecular target: T3, BirA_ec (Escherichia coli, UniProt P06709); experiment: TLC of biotinoyl-5'-AMP from [alpha-32P]ATP; MALDI-TOF of biotinylated AccB87; type: biochemical; conditions: 20 uM biotin, 5 uM ATP, 5 mM MgCl2, 100 mM KCl, pH 8, 37 °C; AccB87 acceptor
T3 construct: gene birA
T3 sequence (P06709 whole entry): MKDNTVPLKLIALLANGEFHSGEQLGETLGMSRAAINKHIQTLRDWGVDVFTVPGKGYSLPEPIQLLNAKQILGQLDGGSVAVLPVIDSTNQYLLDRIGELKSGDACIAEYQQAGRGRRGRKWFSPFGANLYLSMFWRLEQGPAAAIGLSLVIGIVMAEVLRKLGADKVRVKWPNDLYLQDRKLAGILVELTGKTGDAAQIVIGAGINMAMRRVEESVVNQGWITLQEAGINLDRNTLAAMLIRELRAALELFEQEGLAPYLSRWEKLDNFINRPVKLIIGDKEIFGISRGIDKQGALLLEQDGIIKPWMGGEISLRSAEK

BirA2_LL = molecular target: T1, BirA2_LL; experiment: EMSA; 100 uM biotin + 100 uM ATP; 3-12 pmol protein; Roche binding buffer (composition, pH, temperature not stated), 0.2 pmol DIG probe in 15 ul, 100 uM biotin + 100 uM ATP, ~1 h; native PAGE 7% (Methods) or 7.5%; conditions: protein: recombinant; tags: His6 (pET28a); chain copies: 2; label: digoxigenin; blunt
BirA1_LL = molecular target: T2, BirA1_LL; experiment: EMSA; 100 uM biotin + 100 uM ATP (forms biotinoyl-AMP); 3-12 pmol protein; Roche binding buffer (composition, pH, temperature not stated), 0.2 pmol DIG probe in 15 ul, 100 uM biotin + 100 uM ATP, ~1 h; native PAGE 7% (Methods) or 7.5%; conditions: protein: recombinant; tags: His6 (pET28a); chain copies: 2; label: digoxigenin; blunt

Row | Molecule | TLC of biotinoyl-5'-AMP from [alpha-32P]ATP; MALDI-TOF of biotinylated AccB87 (BirA_ec) | binding result (BirA2_LL) | binding result (BirA1_LL)
1 | O=C(O)CCCC[C@@H]1SC[C@@H]2NC(=O)N[C@@H]21 [biotin] | The formation of the biotinylated AccB87 by E. coli BirA | – | –
2 | B1 | – | no binding | binds
